Experiments:
[1] = target: T1, Human IL2Rγ extracellular domain expressed with a C-terminal myc-myc-hexahistidine tag (human); test: SPR, captured mAb, 25C, dissociation pH 7.4
T1 construct: also called hIL-2Rg-MMH; hIL-2RG-MMH
T1 chain: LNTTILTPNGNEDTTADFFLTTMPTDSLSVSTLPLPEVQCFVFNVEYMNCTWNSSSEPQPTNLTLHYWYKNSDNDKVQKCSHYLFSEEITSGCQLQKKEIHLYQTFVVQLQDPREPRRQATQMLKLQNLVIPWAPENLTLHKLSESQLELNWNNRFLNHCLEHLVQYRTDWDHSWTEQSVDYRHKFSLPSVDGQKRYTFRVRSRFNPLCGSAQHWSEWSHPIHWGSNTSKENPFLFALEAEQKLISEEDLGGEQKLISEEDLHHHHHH
Procedure: (§1) The dissociation rate constant (kd) for binding of IL-2Rγ reagents to purified anti-IL2Rγ monoclonal antibodies was determined using a real-time surface plasmon resonance based Biacore 4000 biosensor platform. […] The CM5 Biacore sensor surface derivatized by amine coupling with monoclonal mouse anti-human Fc antibody (GE, Catalog # BR-1008-39) was used to capture anti-IL2Rγ monoclonal antibodies expressed with human IgG4 Fc. All the IL2Rγ reagents were expressed with a C-terminal myc-myc-hexahistidine tag (subsequently referred to with a -MMH suffix). […] The dissociation of bound IL-2Rg-MMH was performed in PBS-T-pH7.4 or PBS-T-pH6.0 running buffers for 6 minutes.
(§2) Dissociation rate constants (kd) in two running buffers were determined by fitting the real-time binding sensorgrams to a 1:1 binding model using Scrubber 2.0c curve-fitting software. Values of dissociation rate for […] mAb binding to hIL-2RG-MMH and mfIL-2RG-MMH at 25° C. and 37° C. in PBS-T-pH7.4 and PBS-T-pH6.0 is shown in Table 2-1 through Table 2-8.

[2] = target: T2, Macaca fascicularis IL2Rγ extracellular domain expressed with a C-terminal myc-myc-hexahistidine tag (Macaca fascicularis); test: SPR, captured mAb, 25C, dissociation pH 7.4
T2 construct: also called mfIL-2Rg-MMH; mfIL-2RG-MMH
T2 chain: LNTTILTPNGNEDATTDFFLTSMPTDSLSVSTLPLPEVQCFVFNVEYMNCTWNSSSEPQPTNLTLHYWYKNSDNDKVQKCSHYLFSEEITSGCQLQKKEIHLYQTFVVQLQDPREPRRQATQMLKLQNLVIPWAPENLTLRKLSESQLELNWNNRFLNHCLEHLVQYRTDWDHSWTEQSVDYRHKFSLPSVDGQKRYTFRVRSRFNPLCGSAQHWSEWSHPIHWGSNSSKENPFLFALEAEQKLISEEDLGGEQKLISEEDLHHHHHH
Procedure: as §1, §2

[3] = target: T1, Human IL2Rγ extracellular domain …; test: SPR, captured mAb, 25C, dissociation pH 6.0
Procedure: as §1, §2

[4] = target: T2, Macaca fascicularis IL2Rγ extracellular …; test: SPR, captured mAb, 25C, dissociation pH 6.0
Procedure: as §1, §2

[5] = target: T1, Human IL2Rγ extracellular domain …; test: SPR, captured mAb, 37C, dissociation pH 7.4
Procedure: as §1, §2

[6] = target: T1, Human IL2Rγ extracellular domain …; test: SPR, captured mAb, 37C, dissociation pH 6.0
Procedure: as §1, §2

Binder	100 nM Ag Bound (RU) [1] [RU]	koff [1] [s⁻¹]	t1/2 [1] [min]	100 nM Ag Bound (RU) [2] [RU]	koff [2] [s⁻¹]	t1/2 [2] [min]	100 nM Ag Bound (RU) [3] [RU]	koff [3] [s⁻¹]	t1/2 [3] [min]	100 nM Ag Bound (RU) [4] [RU]	koff [4] [s⁻¹]	t1/2 [4] [min]	100 nM Ag Bound (RU) [5] [RU]	koff [5] [s⁻¹]	t1/2 [5] [min]	100 nM Ag Bound (RU) [6] [RU]	koff [6] [s⁻¹]	t1/2 [6] [min]
H4H12884P (antibody, human IgG4 S228P, kappa, V domains shown, anti-IL2Rgamma mAb expressed with human IgG4 Fc) VH: QVQLQESGPGLVKPSQTLSLTCTVSGGSISSGGYYWSWIRQHPGKGLEWIGFIYYSGKTYYNPSLKSRLTISVDTSKSQFSLKLRSVTAADTAVYYCARLGYTNSAGWFDPWGQGTLVTVSS VL: DIQMTQSPSSLSASVGDRVTITCRASQSISSYLNWYQQKPGKAPNLLIYAASSLQSGVPSRFSGSGSGTDFTLTISSLQPEDLATYYCQQSYTTPFTFGPGTKVDIKR	161	0.00064	18	160	0.000516	22	135	0.00199	6	133	0.00159	7	171	0.00151	8	136	0.00379	3
H4H12890P (antibody, human IgG4 S228P, kappa, V domains shown, anti-IL2Rgamma mAb expressed with human IgG4 Fc) VH: EVQLVESGGGLVQPGGSLRLSCAASGFTFNNYAMHWVRQAPGKGLEYVSSISSSGGSTYYEDSVKGRFTISRDNSKNTLYLQMGSLRAEDMAVYYCARSFYGSGTYYDTFDMWGQGTMVTVSS VL: DIQMTQSPSSLSASIGDRVTITCRASQSISRYLNWYQQKPGKAPKLLIYAASSLQSGVPSRFSASGSGTDFTLTISSLQPEDFATYYCQQSYSTPFTFGQGTKLEIKR	72	0.000192	60	71	0.000203	57	64	0.000636	18	60	0.000668	17	90	0.000661	17	82	0.00286	4
H4H12889P (antibody, human IgG4 S228P, kappa, V domains shown, anti-IL2Rgamma mAb expressed with human IgG4 Fc; also called REGN7257) VH: EVQLVESGGGLVQPGGSLRLSCAASGFIFSSYEMHWVRQAPGKGLEWISYISSSGTTIYYADSVKGRFTISRDNAKNSLYLHMNSLRAEDTAVYYCTRARITGTFDVFDIWGQGTMVTVSS VL: DIQMTQSPSSLSASVGDRVTITCRASQSISSYLNWYQQKPGKAPKLLIFAASNLQSGVPSRFSGSRSGTDFTLTISSLQPEDFATYYCQQNYNIPYTFGQGTKLEIKR	118	0.000138	84	123	0.000157	74	130	0.000437	26	126	0.000434	27	147	0.000636	18	153	0.00188	6
H4H12908P (antibody, human IgG4 S228P, kappa, V domains shown, anti-IL2Rgamma mAb expressed with human IgG4 Fc) VH: EVQLVESGGRLVQPGGSLRLSCEASGFTFSNYGMTWVRQAPGKGLEWVSVISGSDNRKYYAESVKGRFTISRDNSKNTLYLQMNSLRAEDTAVYYCAKLGYSRSSKDFYYGMDVWGQGTTVTVSS VL: not shown	31	0.000177	65	37	0.000208	56	34	0.000505	23	34	0.000488	24	54	0.000671	17	52	0.00163	7
H4H13541P (antibody, human IgG4 S228P, kappa, V domains shown, anti-IL2Rgamma mAb expressed with human IgG4 Fc) VH: EVQLVESGGGVVRPGGSLRLSCAASGFIFDDYDMSWVRQPPGRGLEWVSGIDWFGGTRGYADSMKGRFTISRDNAKNSLYLQMNSLRVEDTAFYYCARGGAIVGAVTPFDYWGQGTLVTVSS VL: DIQMTQSPSSLSASVGNRVTLSCRASQSINTYLSWYQQRPGKAPKLLIYAASSLQSGVPSRFSGSGAGTDFTLTISSLQPEDFATYYCQQSYSAPLTFGGGTKVEIKR	72	0.000165	70	80	0.000222	52	66	0.000469	25	69	0.000497	23	98	0.000532	22	95	0.00158	7
H4H12899P (antibody, human IgG4 S228P, kappa, V domains shown, anti-IL2Rgamma mAb expressed with human IgG4 Fc) VH: QVQLVESGGDLVKPGGSLRLSCATSGFTFSDFYMTWIRQAPGKGLEWISYISNSGSIVKYADSVKGRFTISRDNAKNSLYLQMNSLRAEDTAIYYCARFYGDRWGQGTLVTVSS VL: DIQLTQSPSFLSASVGDRVTITCWASQGISTFLAWYQQKPGKAPKLLIYAASTLQSGVPSRFSGSGSGTDFTLTISSLQPEDFATYHCQQLNNYPWTFGQGTKVEIKR	118	0.000174	66	117	0.000167	69	96	0.000568	20	95	0.000703	16	158	0.000668	17	125	0.00219	5
H4H12900P (antibody, human IgG4 S228P, kappa, V domains shown, anti-IL2Rgamma mAb expressed with human IgG4 Fc) VH: QVQLVESGGGLVKPGGSLRLSCEASGFTFNDFYMTWIRQAPGKGLEWIAYISKSGDKMRYADSVKGRFSTSRDNAKNSLSLQMNSLRAEDTAVYYCARFYGDIWGQGTLVTVSS VL: DIQLTQSPSFLSASVGDRVTITCWASQDISSFLVWYQQKPGKAPNLLIYAASALQSGVPSRFSGSGSGTEFTLTISSLQPEDFASYYCEQLNNYPWTFGQGTKVEIKR	130	0.000175	66	129	0.000175	66	101	0.000692	17	100	0.000671	17	162	0.000711	16	133	0.00271	4
H4H12886P (antibody, human IgG4 S228P, kappa, V domains shown, anti-IL2Rgamma mAb expressed with human IgG4 Fc) VH: EVQLVESGGGLVKPGGSLRLSCAASGFTFSTAWMSWVRQSPGRGLEWVGRMKSKTDGGTTFYAAPVKGRFTISRDDSKNTLYLQMNSLKTEDTAVYYCTTGLVPAFYKYYGVDVWGQGTTVTVSS VL: DIQMTQSPSSLSASVGDRITITCQASQDITNYLNWYQQKPGKAPNLLIYDASNLVTGVPSRFSGSGSGTDFTFTILSLQPEDIATYYCQQYDSLLTFGPGTKVDIKR	113	0.000155	75	113	0.000175	66	84	0.000634	18	83	0.000682	17	146	0.000519	22	115	0.00216	5
